Target: TRPV1 disordered region polypeptide (UniProt Q8NER1)
Test: modified sandwich ELISA, fluorescence grade (key: 50000 < x < 100000, Weak binding)

fluorescent signal (fluorescentsignal): 50000 to 100000
B1: S068 (designed binder)
chain: GDTRPRFLWQLKFECHFFNGTERVRLLERCIYNQEESVRFDSDVGEYRAVTELGRPDAEYWNSQKDLLEQRRAAVDTYCRHNYGVGESFTVQRRVEPKVTVYPSKTQPLQHHNLLVCSVSGFYPGSIEVRWFRNGQEEKAGVVSTGLIQNGDWTFQTLVMLETVPRSGEVYTCQVEHPSVTSPLTVEWRASGGGGSGGGGSGGGGIKEEHVIIQAEFYLNPDQSGEFMFDFDGDEIFHVDMAKKETVWRLEEFGRFASFEAQGALANIAVDKANLEIMTKRSNYTPITNVPPEVTVLTNSPVELREPNVLICFIDKFTPPVVNVTWLRNGKPVTTGVSETVFLPREDHLFRKFHYLPFLPSTEDVYDCRVEHWGLDEPLLKHWEFDAPSGGSHHHHHHLE

From patent publication US20260102461A1
